Reference: US20250340661A1 (JIANGSU HENGRUI PHARMACEUTICALS, published 2025)

How the values were obtained:
[1] = target: T1, his-tagged human CD40 (h-CD40-his) recombinant protein (human, UniProt P25942 21-193); test: SPR (Biacore), antibody captured on anti-human Fc chip, His-tagged CD40 as analyte, 1:1 model
T1 construct: Bought from Acrobiosystems, Cat. #CD0-H5228; also called His-tagged human CD40 antigen; not shown: His tag
Procedure: (§1) The test antibody was affinity-captured on an anti-human Fc chip, and a series of concentrations of His-tagged human or cynomolgus monkey CD40 antigen were allowed to flow over the chip surface. Reaction signals were detected in real time using a Biacore instrument, and thus binding and dissociation curves were obtained. The buffer used in the experiment was HBS-EP+10× buffer solution (Cat. #BR-1006-69, GE) diluted to 1× (pH 7.4) with D. I. Water. Fitting was performed on the data obtained from the experiment using a (1:1) Binding model to obtain affinity values. 9E6-L4H2 and 2F12-L4H2 have similar binding constants for human CD40 to CFZ533, 9E6-L4H2 has a stronger binding affinity for cynomolgus monkey CD40, and 2F12-L4H2 has a slightly weak binding affinity for cynomolgus monkey CD40.

[2] = target: T2, his-tagged cynomolgus monkey CD40 (cyno-CD40-his) recombinant protein (cynomolgus monkey); test: as above
T2 construct: Bought from Acrobiosystems, Cat. #CD0-C52H6
Procedure: as §1

[3] = target: T3, human CD40 on the cell surface (human, UniProt P25942 21-277); test: cell-based or functional assay
T3 sequence (P25942 21-277): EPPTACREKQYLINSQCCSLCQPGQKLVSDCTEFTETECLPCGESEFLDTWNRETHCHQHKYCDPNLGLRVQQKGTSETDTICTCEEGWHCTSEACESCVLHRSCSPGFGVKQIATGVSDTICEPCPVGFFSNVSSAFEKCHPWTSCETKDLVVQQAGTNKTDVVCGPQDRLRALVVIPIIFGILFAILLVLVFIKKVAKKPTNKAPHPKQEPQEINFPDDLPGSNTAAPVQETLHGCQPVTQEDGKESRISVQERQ

[4] = target: T3, human CD40 on the cell surface; test: cell-based or functional assay; remark: listed apart in the source
[5] = target: T3, human CD40 on the cell surface; test: flow cytometry on Raji cells, Alexa Fluor 488 anti-human IgG (H+L) detection
Procedure: Raji cells were plated at 1.5E5/well, and various concentrations of CD40 antagonistic antibodies were added. The plate was incubated at 4° C. for 1 h. After two washes with FACS buffer (PBS+2% FBS), a secondary antibody (Alexa Flour488 conjugated anti-human IgG (H+L) antibody) was added, and the plate was incubated at 4° C. for 0.5 h.
After two washes with FACS buffer, the fluorescence intensity on the cell surface was measured by flow cytometry (BD FACS Celesta).

[6] = target: T3, human CD40 on the cell surface; test: cell-based or functional assay; remark: listed apart in the source
human FcRn antigen = human FcRn antigen (human, UniProt P55899 24-297; P61769 21-119); test: SPR (Biacore), antibody captured on anti-human Fab chip, human FcRn as analyte, steady state model
Chain of human FcRn antigen (P55899 24-297 limits assumed, chain 1 of 2): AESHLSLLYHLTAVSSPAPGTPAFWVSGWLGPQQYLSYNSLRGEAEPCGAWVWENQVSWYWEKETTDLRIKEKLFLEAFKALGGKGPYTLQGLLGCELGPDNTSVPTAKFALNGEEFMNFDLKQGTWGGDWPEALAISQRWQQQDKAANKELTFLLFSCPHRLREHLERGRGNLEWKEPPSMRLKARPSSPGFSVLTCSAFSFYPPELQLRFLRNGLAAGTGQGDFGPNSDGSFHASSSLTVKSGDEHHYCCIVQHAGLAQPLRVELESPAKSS
Chain of human FcRn antigen (P61769 21-119 limits assumed, chain 2 of 2): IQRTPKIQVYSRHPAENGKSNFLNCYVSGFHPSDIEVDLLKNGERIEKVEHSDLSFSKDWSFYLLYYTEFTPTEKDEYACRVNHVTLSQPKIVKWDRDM
Procedure: The test antibody was affinity-captured on an anti-human Fab chip, and a series of concentrations of human FcRn antigen (purchased from AcroBiosystem) were allowed to flow over the chip surface. Reaction signals where the reactions were in a steady state were detected in real time using a Biacore instrument. The buffer used in the experiment was HBS-EP+10× buffer solution (Cat. #BR-1006-69, GE) diluted to 1× (pH 7.4) with D. I. Water. Fitting was performed on the data obtained from the experiment using a steady state binding model to obtain affinity values. The anti-CD40 antibodies carrying the AAYTE mutation have a higher binding affinity for human FcRn than their parent antibodies.

[7] = target: T3, human CD40 on the cell surface; test: cell-based or functional assay; remark: listed apart in the source
[8] = target: T3, human CD40 on the cell surface; test: cell-based or functional assay; remark: listed apart in the source

T1 sequence (P25942 21-193 limits assumed): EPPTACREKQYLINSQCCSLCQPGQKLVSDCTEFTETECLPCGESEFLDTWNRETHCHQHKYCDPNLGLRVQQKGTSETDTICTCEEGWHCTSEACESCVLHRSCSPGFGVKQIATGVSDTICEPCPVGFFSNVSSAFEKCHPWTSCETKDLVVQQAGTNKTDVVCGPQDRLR

B1: humanized anti-CD40 antibody 2F12-L4H2 (antibody, human IgG1, kappa, N297A)
heavy: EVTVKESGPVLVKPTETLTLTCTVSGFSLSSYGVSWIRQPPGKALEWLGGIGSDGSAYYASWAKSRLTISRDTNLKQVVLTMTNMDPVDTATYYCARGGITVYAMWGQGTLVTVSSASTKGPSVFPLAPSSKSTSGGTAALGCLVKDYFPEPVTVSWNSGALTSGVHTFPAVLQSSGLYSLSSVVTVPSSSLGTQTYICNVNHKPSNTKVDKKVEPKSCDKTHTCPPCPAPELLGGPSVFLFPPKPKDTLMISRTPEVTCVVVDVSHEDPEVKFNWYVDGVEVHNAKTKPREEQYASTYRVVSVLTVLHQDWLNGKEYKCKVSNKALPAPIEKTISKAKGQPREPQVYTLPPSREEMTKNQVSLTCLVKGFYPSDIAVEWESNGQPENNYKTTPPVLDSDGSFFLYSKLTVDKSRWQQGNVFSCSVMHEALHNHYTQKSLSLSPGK
light: AFQLTQSPSSLSASVGDRVTITCQASQSISTGLAWYQQKPGKPPKLLIVGASNLASGVPSRFSGSGSGTDFTLTISSLQPEDFATYYCQSYFSSSSTVFGGGTKVEIKRTVAAPSVFIFPPSDEQLKSGTASVVCLLNNFYPREAKVQWKVDNALQSGNSQESVTEQDSKDSTYSLSSTLTLSKADYEKHKVYACEVTHQGLSSPVTKSFNRGEC
notes: human IgG1 N297A (Eu) heavy chain, human kappa light chain; 2F12-L4 light chain and 2F12-H2 heavy chain
[1]
  Kd: 2.71 nM
  koff: 0.00206 s⁻¹
  kon: 758000 M⁻¹ s⁻¹
[2]
  Kd: 35.3 nM
  koff: 0.414 s⁻¹
  kon: 1.17e+07 M⁻¹ s⁻¹
[3]
  IC50 in DC cell activation assay system, CD80 MFI: 0.78 nM
  IC50 in DC cell activation assay system, CD86 MFI: 0.52 nM
  IC50 in DC cell activation assay system, IL-12/23 p40: 0.68 nM
  IC50 in DC cell activation assay system, TNFα: 0.3 nM
[4]
  IC50 (read off the curve), CD40L-induced IL-12/23 p40 secretion by DC cells: ~0.7 nM
[5]
  EC50: 0.589 nM
[6]
  B cell activation assay, CD19+CD69+ % IC50: 0.04 nM
  B cell activation assay, CD19+CD69+ MFI IC50: 0.03 nM
Human FcRn antigen
  Kd: 279 nM
[7]
  IC50 (read off the curve), CD40L-induced TNFα secretion by DC cells: ~0.4 nM
[8]
  IC50 for the inhibition of CD40 reporter gene cell activity (Assay 1): 0.18 nM
